Laboratory results published in US20090069547A1, “STABILIZATION OF MAMMALIAN MEMBRANE PROTEINS BY SHORT SURFACTANT PEPTIDES” (Massachusetts Institute of Technology, priority 2007, published 2009).
Where two headings read alike, the source gives them in different places.

Experiments:
[1] = molecular target: T1, GPCR bovine rhodopsin (Bos taurus, UniProt P02699); assay: Thermal stability of rhodopsin in peptide solution in the presence of surfactant (decay of A500); assay type: biochemical
T1 construct: Bovine retinae rod outer segment membranes were prepared (40, 41) and urea-stripped (42); tissue J. A. Lawson (Lincoln, Nebr.); host or cells: bovine retinae, rod outer segments
T1 sequence (P02699 whole entry): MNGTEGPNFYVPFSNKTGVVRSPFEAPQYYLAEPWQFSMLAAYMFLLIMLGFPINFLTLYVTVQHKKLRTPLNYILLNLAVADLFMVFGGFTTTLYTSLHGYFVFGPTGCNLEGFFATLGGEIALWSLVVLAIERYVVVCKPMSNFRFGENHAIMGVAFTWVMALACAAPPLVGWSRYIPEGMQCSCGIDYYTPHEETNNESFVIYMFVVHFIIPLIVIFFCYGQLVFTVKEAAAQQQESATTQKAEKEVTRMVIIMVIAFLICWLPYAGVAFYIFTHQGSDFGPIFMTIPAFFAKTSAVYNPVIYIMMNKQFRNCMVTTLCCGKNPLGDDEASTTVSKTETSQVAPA
Protocol: Solubilization of Rhodopsin in Different Surfactants. Bovine retinae rod outer segment membranes were prepared (40, 41) and urea-stripped (42). Samples of the membranes containing 1.4 nmol of rhodopsin were solubilized in 0.5 ml of PBS containing 0.5 mM phenylmethylsulfonyl fluoride with 1% DM or 2% (/vol) OG. The suspensions were centrifuged (100,000×g for 15 min), and the supernatants were kept in the dark at 4° C.
Thermal Stability Study of Rhodopsin in Peptide Solution in the Presence of the Surfactant. Rhodopsin solubilized (32-34) in PBS containing 2% (vol/vol) OG was added to the same volume of PBS containing 0, […], 5.0, or 7.5 mM A6D, 1.8% PEG, or 5.4 mM RAD8. In another experiment, rhodopsin solubilized in PBS containing 1% (19.8 mM) DM was added to the same volume of PBS containing 5.0 mM A6D or 0, 5.0, or 19.8 mM DM. A decrease in A500 was recorded every 5 min up to 110 min at 40° C. for the samples containing OG and at 40-55° C. for those containing DM (FIGS. 2 and 3). UV-visible absorption spectroscopy was performed with a Lambda 6 spectrophotometer (Perkin-Elmer, Wellesley, Mass.) equipped with a temperature regulated cuvette holder with a slit width of 2 nm, 480 nm/min scan speed, and a response time of 1 second. The A500 remaining at different time points was expressed as the percentage of absorbance present at the start of the experiment. The half-life of rhodopsin in each solution was calculated by using a single exponential curve fit. The plot obtained from the percentage of absorbance at different time points was fitted to a single exponential curve with two parameters (Eq. 1).
The plot obtained from the A500 values at different time points was directly fitted to a single exponential curve with three parameters (Eq. 2) when the plot from the percentage of absorbance could not be fitted to Eq. 1.
The half-life (t1/2) was calculated using Eq. 3.

[2] = system: photosystem I (PSI) protein complex; settings: cited from earlier work; for Stabilization of the PSI complex (≈735-nm fluorescence maximum, words): surfactant added before drying the sample, emission at 77 K
[3] = non-peptide surfactant, medium not stated; cited from earlier work
[4] = molecular target: T1, GPCR bovine rhodopsin; assay: Thermal stability of rhodopsin in peptide solution in the absence of OG (decay of A500); assay type: biochemical; settings: for Half-life of rhodopsin: control samples containing only OG, without A6D
Protocol: Thermal Stability of Rhodopsin in Peptide Solution in the Absence of OG. Rhodopsin solubilized in PBS containing 2% (vol/vol) OG was added to the same volume of PBS containing 2.5 mM A6D. […] Then, 0.5 ml of the mixture was poured into the tube. The tube was covered with 10 kDa of cutoff membrane and dialyzed against 4.5 ml of PBS containing 1.25 mM A6D for 40 h in the dark at 4° C. A resultant sample decrease in A500 was recorded every 5 min for 120 min at 40° C. A decrease in A500 of the predialysis mixture containing 1% OG and 1.25 mM A6D was also monitored as a control (FIG. 4A).

[5] = molecular target: T2, delipidated bovine rhodopsin (Bos taurus, UniProt P02699); assay: Thermal stability of delipidated rhodopsin in the absence of phospholipids (decay of A500); assay type: biochemical
T2 construct: Bovine retinae rod outer segment membranes were prepared (40, 41) and urea-stripped (42); tissue J. A. Lawson (Lincoln, Nebr.); host or cells: bovine retinae, rod outer segments
T2 sequence (P02699 whole entry): as above
Protocol: Removal of Phospholipids from Rhodopsin. Samples of the membranes containing 4.7 nmol of rhodopsin were solubilized in 1,000 ul of PBS containing 2% (vol/vol) OG. The suspension was mixed with 250 ul (settled beads, concentration of 50%) of rhodopsin-1D4 Sepharose and rotated for 3 h. The 1D4 Sepharose beads were then packed into a minicolumn (7-mm inner diameter) and washed with PBS containing 1% OG by using 500 bed volumes (total of 62.5 ml). The rhodopsin was then eluted with 1.5 ml of PBS containing 1% OG and the C-terminal nanopeptide.
Thermal Stability Study of Rhodopsin in Peptide Solution in the Absence of Phospholipids. The delipidated rhodopsin solution was added to the same volume of 1% OG in PBS containing 0, 3.75, or 7.5 mM A6D, or 1.8% PEG (FIG. 4B). In another experiment, the delipidated rhodopsin solutions were poured into tubes. Each tube was covered with 10 kDa of cutoff membrane and dialyzed against 4.5 ml of PBS or PBS containing 1.25 mM A6D or 1% OG (FIG. 4C). For all samples, a decrease in A500 was recorded every 5 min, up to 120 min at 40° C.

[6] = Critical aggregation concentration (CAC) of surfactants, dynamic light scattering; assay type: physicochemical
Protocol: In a further embodiment, the surfactant peptide is added to the mammalian membrane protein at a concentration that is based on the CAC of the surfactant peptide. The CAC of surfactants can be determined experimentally using known dynamic light scattering methods. A minimal amount of sample can be used in this method. Each CAC determination takes a few hours, therefore it is possible to determine the CAC for a large number of peptide detergents in a few weeks. It is known that the lower the CAC, the more hydrophobic the detergents and the stronger the aggregation in water. The CAC for several peptide surfactants in water is shown below in Table 1.
Similar to common surfactants, these peptide surfactants have defined critical aggregation concentrations (CACs) in the sub-millimolar to millimolar range, depending on the hydrophobicity of the tails and the ionic concentration. For example, in water, A6D has a CAC of ≈1.6 mM, and A6K has a CAC of 1.5 mM; however, in phosphate-based saline (PBS) (10 mM sodium phosphate/150 mM NaCl, pH 7.4), A6D has a CAC of 0.25 mM and A6K has a CAC of ≈0.23 mM. This difference is due the charge screening effect in accordance with the Derjaguin-Landau-Verwey-Overbeck (DVLO) theory, which postulates that a critical coagulation concentration of counterions is required to allow assembly and that this concentration will be inversely proportional to the valence of the counterion raised to the sixth power (28). The peptide surfactant supramolecular structure is similar to that of phospholipids; namely, the formation of a polar interface sequesters the hydrophobic tails from water.

[7] = molecular target: T1, GPCR bovine rhodopsin; assay: Thermal stability of rhodopsin in peptide solution in the presence of surfactant (decay of A500); assay type: biochemical; settings: control solution (1.25 mM A6D/1% OG), 50° C.
[8] = system: phycobilisomes; assay: Stabilization of phycobilisomes, room temperature fluorescent spectroscopy (666 nm); assay type: biochemical, Porphridium Cruentum; settings: for 666 nm fluorescence intensity: phycobilisomes after buffer change to 0.4M PBS, excitation 540 nm, room temperature
Protocol: Methods: Native phycobilisomes were isolated from Porphridium Cruentum, purified by Martek Biosciences and received in stabilizing buffer (0.75 M PBS, pH ˜7). Peptergents (ac-A6D and ac-A6K—NH2) were used as supplied (CPC Scientific) without further purification. Briefly, phycobilisomes (1 ng/mL) were mixed with peptergent-0.75M PBS solutions (0, 1, 2, 4 and 8 critical aggregation concentrations (CAC)). Phycobilisome-peptide solutions were dialyzed (3400 MWCO) against PBS solutions of various molarity (0.6-0.01M) for 18 h, in the dark. Room temperature fluorescent spectroscopy of these solutions was conducted using an excitation wavelength of 540 nm and emitted fluorescence (550-700 nm) were collected. UV-Vis spectra were obtained to confirm solution concentrations for all acquired fluorescent data.

[9] = molecular target: T3, glycerol 3-phosphate dehydrogenase (Escherichia coli, UniProt P13035); settings: in solution, assayed through protein gel electrophoresis; cited from earlier work
T3 sequence (P13035 1-501): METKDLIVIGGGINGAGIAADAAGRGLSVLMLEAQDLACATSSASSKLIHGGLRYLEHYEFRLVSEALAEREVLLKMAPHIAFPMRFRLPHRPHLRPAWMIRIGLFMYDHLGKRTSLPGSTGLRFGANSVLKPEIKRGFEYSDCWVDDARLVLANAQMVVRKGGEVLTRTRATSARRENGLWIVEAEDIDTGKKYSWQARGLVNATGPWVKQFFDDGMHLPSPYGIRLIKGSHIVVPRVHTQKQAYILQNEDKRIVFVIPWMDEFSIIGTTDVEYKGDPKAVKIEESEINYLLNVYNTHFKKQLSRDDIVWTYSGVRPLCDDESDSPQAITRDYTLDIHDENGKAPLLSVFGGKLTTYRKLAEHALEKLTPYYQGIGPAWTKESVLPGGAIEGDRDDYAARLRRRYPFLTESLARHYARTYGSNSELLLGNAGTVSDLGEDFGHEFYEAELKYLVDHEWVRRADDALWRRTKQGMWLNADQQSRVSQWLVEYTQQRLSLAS

[10] = in phosphate-based saline (PBS) (10 mM sodium phosphate/150 mM NaCl, pH 7.4)

Compound: CCCCCCCCCCCCO[C@@H]1O[C@H](CO)[C@@H](O[C@H]2O[C@H](CO)[C@@H](O)[C@H](O)[C@H]2O)[C@H](O)[C@H]1O [DM, n-dodecyl-B-D-maltoside]
- Half-life of rhodopsin ([1]; 12.3 mM DM, 50° C.): 96 min
- Half-life of rhodopsin ([1]; rhodopsin/phospholipid, 13.3 mM DM (89×CAC)): ≈ 93 min
- Half-life of rhodopsin ([1]; rhodopsin/phospholipids, 9.8 mM DM, 50° C.): 102 min and ≈ 102 min
- Half-life of rhodopsin ([1]; rhodopsin/phospholipids, 19.6 mM DM, 50° C.): 96 min and ≈ 93 min
- Stabilization of the PSI complex (≈735-nm fluorescence maximum, words) [2]: did not stabilize
- CAC [3]: ≈ 0.15 mM

Compound: CCCCCCCCO[C@@H]1O[C@H](CO)[C@@H](O)[C@H](O)[C@H]1O [OG, octyl-D-glucoside]
- Half-life of rhodopsin ([1]; rhodopsin/phospholipids in 1% OG (PBS), 40° C.): 71 min and ≈ 71 min
- Stabilization of the PSI complex (≈735-nm fluorescence maximum, words) [2]: did not stabilize
- CAC [3]: ≈ 5 mM
- Half-life of rhodopsin ([4]; 40° C.): ≈ 101 min
- Half-life of rhodopsin ([4]; 50° C.): ≈ 5 min
- Stabilization effect on delipidated rhodopsin ([5]; OG added to delipidated rhodopsin, 40° C.): did not have a significant stabilization effect
- Half-life of rhodopsin ([5]; delipidated rhodopsin dialyzed against 1% OG (control), 40° C.): 27 min
- Half-life of rhodopsin ([5]; delipidated rhodopsin, 1% OG, 40° C. (A6D concentration series)): 23 min

Compound: AAAAAAD [A6D]
- fold increase in stability compared with the stability in OG alone ([1]; 2.5 mM A6D/1% OG, rhodopsin/phospholipids, 40° C.): 2.5 fold
- fold increase in stability of rhodopsin ([1]; 3.75 mM A6D/1% OG, rhodopsin/lipid, 40° C.): ~4 fold
- Half-life of rhodopsin ([1]; rhodopsin/lipid, 1.25 mM A6D/1% OG, 40° C.): 101 min and ≈ 101 min
- Half-life of rhodopsin ([1]; rhodopsin/lipid, 3.75 mM A6D/1% OG, 40° C.): 277 min and ≈ 277 min
- Half-life of rhodopsin ([1]; rhodopsin/phospholipids, 2.5 mM A6D/1% OG, 40° C.): 173 min and ≈ 173 min
- Thermal stability of rhodopsin ([1]; rhodopsin/phospholipids/DM (9.8 mM) plus 2.5 mM A6D, 50° C.): extremely stable with little decay
- CAC [6, 10]: 0.25 mM
- CAC ([6]; in water): ~1.6 mM
- Half-life of rhodopsin [7]: < 5 min
- Thermal stability of rhodopsin ([4]; rhodopsin/lipid/A6D complex without OG, 2.5 mM A6D, 40° C., 50° C., and 55° C.): very stable at all tested temperatures with little denaturation
- Concentration normalized signal strength ([8]; 666 nm, versus stabilized control): very similar to the stabilized control
- 666 nm fluorescence intensity [8]: 1.3 ×10^5 cps
- Half-life of rhodopsin ([5]; delipidated rhodopsin, 1.25 mM A6D alone, no OG, no phospholipids, 40° C.): 122 min and ≈ 122 min
- fold increase in stability compared with the stability in OG alone ([5]; delipidated rhodopsin, 1.87 mM A6D in OG, 40° C.): 2.8 fold
- Half-life of rhodopsin ([5]; delipidated rhodopsin, 1.87 mM A6D/1% OG, 40° C.): 76 min and ≈ 76 min
- fold increase in stability compared with the stability in OG alone ([5]; delipidated rhodopsin, 3.75 mM A6D in OG, 40° C.): 4.7 fold
- Half-life of rhodopsin ([5]; delipidated rhodopsin, 3.75 mM A6D/1% OG, 40° C.): 128 min and ≈ 128 min
- fold increase in stability ([5]; delipidated rhodopsin, A6D alone vs absence of both phospholipids and OG, 40° C.): 2.6 fold

Compound: AAAAAAK [A6K]
- Time the PSI complex is stable in a dried form ([2]; room temperature, in the presence of the peptide surfactant): at least 3 weeks
- Stabilization of the PSI complex (≈735-nm fluorescence maximum, words) [2]: significantly stabilized the PSI complex
- CAC [6, 10]: ≈ 0.23 mM
- CAC ([6]; in water): ~1.5 mM
- 666 nm fluorescence intensity [8]: 0.7 ×10^5 cps

Compound: Ac-n-RADARADA-c-NH2 (Ac-RADARADA-NH2) [RAD8, octapeptide similar in size to A6D without significant surfactant properties]
- Half-life of rhodopsin ([1]; rhodopsin/phospholipid, 2.8 mM RAD8/1% OG, 40° C.): 99 min and ≈ 99 min

Compound: VVVVVVD [V6D]
- Stabilization of the PSI complex (≈735-nm fluorescence maximum, words) [2]: also stabilized the complex, but to a lesser extent
- CAC ([6]; in water): ~0.7 mM
- Solubilized membrane protein function [9]: retaining its functional enzymatic activities

Compound: VVVVVVDD [V6D2]
- CAC ([6]; in water): 1.1 mM
